Consider one molecule from patent US20110045489A1, “Polymerases for Incorporating Modified Nucleotides” (NEW ENGLAND BIOLABS, INC., priority 2008, published 2011).

Common to all, as to assay type: biochemical
The subject of one assay is 3′-azido-ddCTP. The assay is described as follows: Kinetic analysis of 3′-azido-ddCTP incorporation (primer extension, PAGE). Here is the method: An IR800-dye-labeled synthetic primer 5′-AGTGAATTCGAGCTCGGTACCCGGGGATCCTCTAGAGTCGACCTGCAGGC-3′ (SEQ ID NO:18) was annealed to a template 3′-TCACTTAAGCTCGAGCCATGGGCCCCTAGGAGATCTCAGCTGGACGTCCGGATCCTATACTAATCCC-5′ (SEQ ID NO:19) and used as a substrate to measure rates of 3′-azido-ddCTP incorporation. Incorporation of varying concentrations of 3′-azido-ddCTP (100, 50, 25, 12.5, 6.25, and 3.125 μM) by 9° N exo-L408S/Y409A/P410V DNA polymerase was monitored over a three-minute time course. Reaction aliquots were sampled at 10, 20, 30, 45, 60, and 180 seconds and analyzed by 20% denaturing PAGE. “S” is the unextended primer and “P” is the fully extended product corresponding to 3′-azido-ddCMP addition at the +1 position.
(§1) An IR800-dye-labeled synthetic primer 5′-AGTGAATTCGAGCTCGGTACCCGGGGATCCTCTAGAGTCGACCTGCAGGC-3′ (SEQ ID NO:18) was annealed to a template 3′-TCACTTAAGCTCGAGCCATGGGCCCCTAGGAGATCTCAGCTGGACGTCCGGATCCTATACTAATCCC-5′ (SEQ ID NO:19) and used as a substrate. Reaction aliquots were sampled at 10, 30, 60, 120 and 300 seconds and analyzed by 20% denaturing PAGE. Unextended primer (0) and fully extended product (+1) are indicated.
Linear rates of 3′-azido-ddCTP incorporation derived from these curves are 100 μM: 0.05 s^−1; 50 μM: 0.05 s^−1; 25 μM: 0.05s^−1; 12.5 μM: 0.03s^−1; 6.25 μM: 0.03s^−1; 3.125 μM: 0.02 s^−1.
An IR800-dye-labeled synthetic primer 5′-AGTGAATTCGAGCTCGGTACCCGGGGATCCTCTAGAGTCGACCTGCAGGC-3′ (SEQ ID NO:18 was annealed to a template 3′-TCACTTAAGCTCGAGCCATGGGCCCCTAGGAGATCTCAGCTGGACGTCCGGATCCTATACTAATCCC-5′ (SEQ ID NO:19) and used as a substrate to measure rates of 3′-azido-ddCTP incorporation over a three-minute time course. The results are shown in FIG. 2. Reaction aliquots were sampled at 10, 20, 30, 45, 60, and 180 seconds and analyzed by 20% denaturing PAGE where “S” indicates the unextended primer and “P” the fully extended product corresponding to 3′-azido-ddCMP addition at the +1 position(B). 9° N exo-L408S/Y409A/P410V incorporation of varying concentrations of 3′-azido-ddCTP was measured over a three-minute time course.

Another assay relates to modified nucleotide. The assay is described as follows: Screen of DNA polymerase mutants for modified nucleotide incorporation. In short, it runs like this:
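Chain-terminator titration (Gardner and Jack 2002) compared terminator amounts giving equal product-size spectra, product size shrinking as terminator incorporation rises. Applied to purified 9° N exo- polymerase library mutants with 3′-azido-ddCTP and 3′-amino-ddCTP; incorporation rates also measured.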

The subject of a further assay is 3′-amino-ddCTP. The assay is described as follows: Kinetic analysis of 3′-amino-ddCTP incorporation (primer extension, PAGE). The settings on record: FIG. 3.
Text: as §1
Furthermore, the same assay was used to measure 3′-amino-ddCTP incorporation by 9° N exo-L408S/Y409A/P410V (FIG. 3) and to measure rates of incorporation (FIG. 4). Examples of mutants that increased modified nucleotide incorporation by at least two-fold were: […]

B1: 9° N exo-L408S/Y409A/P410V: 9° N DNA polymerase mutant (Therminator III™, NEB) (protein, UniProt Q56366 1-775, looked up, variant D141A E143A L408S Y409A P410V)
DNA polymerase: MILDTDYITENGKPVIRVFKKENGEFKIEYDRTFEPYFYALLKDDSAIEDVKKVTAKRHGTVVKVKRAEKVQKKFLGRPIEVWKLYFNHPQDVPAIRDRIRAHPAVVDIYEYDIPFAKRYLIDKGLIPMEGDEELTMLAFAIATLYHEGEEFGTGPILMISYADGSEARVITWKKIDLPYVDVVSTEKEMIKRFLRVVREKDPDVLITYNGDNFDFAYLKKRCEELGIKFTLGRDGSEPKIQRMGDRFAVEVKGRIHFDLYPVIRRTINLPTYTLEAVYEAVFGKPKEKVYAEEIAQAWESGEGLERVARYSMEDAKVTYELGREFFPMEAQLSRLIGQSLWDVSRSSTGNLVEWFLLRKAYKRNELAPNKPDERELARRRGGYAGGYVKEPERGLWDNIVYLDFRSSAVSIIITHNVSPDTLNREGCKEYDVAPEVGHKFCKDFPGFIPSLLGDLLEERQKIKRKMKATVDPLEKKLLDYRQRAIKILANSFYGYYGYAKARWYCKECAESVTAWGREYIEMVIRELEEKFGFKVLYADTDGLHATIPGADAETVKKKAKEFLKYINPKLPGLLELEYEGFYVRGFFVTKKKYAVIDEEGKITTRGLEIVRRDWSEIAKETQARVLEAILKHGDVEEAVRIVKEVTEKLSKYEVPPEKLVIHEQITRDLRDYKATGPHVAVAKRLAARGVKIRPGTVISYIVLKGSGRIGDRAIPADEFDPTKHRYDAEYYIENQVLPAVERILKAFGYRKEDLRYQKTKQVGLGAWLKVKGKK
As to B1, the “linear rate of 3′-azido-ddCTP incorporation” value with 3′-azido-ddCTP (3.125 μM 3′-azido-ddCTP) turned out to be 0.02 s⁻¹; in the assay with 3′-azido-ddCTP (6.25 μM 3′-azido-ddCTP) it was 0.03 s⁻¹; in the assay with 3′-azido-ddCTP (12.5 μM 3′-azido-ddCTP), 0.03 s⁻¹; in the assay with 3′-azido-ddCTP (25 μM 3′-azido-ddCTP), 0.05 s⁻¹; with 3′-azido-ddCTP (50 μM 3′-azido-ddCTP) it was 0.05 s⁻¹; in the assay with 3′-azido-ddCTP (100 μM 3′-azido-ddCTP), 0.05 s⁻¹. Besides, the “concentration of modified nucleotide sufficient for efficient incorporation” value in the assay on 3′-azido-ddCTP (3′-azido-ddCTP, FIG. 3) is 10 µM; in the assay with 3′-amino-ddCTP, 10 µM. For the same molecule, the “3′-azido-ddCTP incorporation” value in the assay with 3′-azido-ddCTP (after three minutes) is reported as around 100%. In the assay on modified nucleotide, the “increase of modified nucleotide incorporation” value was “at least two-fold”.
